Results as given in paper PMC5819227.

Biological target: Enc-I3-01-MhIHL-V54L (engineered ketohydroxyglutarate aldolase from T. maritima fused at its C terminus to the (+)-γ-lactamase mutant MhIHL-V54L from Microbacterium hydrocarbonoxydans) (Thermotoga maritima | Microbacterium hydrocarbonoxydans)
Experiment: negative-stain transmission electron microscopy; purified protein at 1.33 mg/mL adsorbed onto copper grids, stained with 3% uranyl acetate

stoichiometry N: 60 subunits
Substance: Enc-I3-01-MhIHL-V54L (engineered ketohydroxyglutarate aldolase from T. maritima fused at its C terminus to the (+)-γ-lactamase mutant MhIHL-V54L from Microbacterium hydrocarbonoxydans)
